Reference: patent publication US8008547B2, “Glyphosate-N-acetyltransferase (GAT) genes” (E.I. duPont de Nemours, priority 2000, dated 2011)

Experiment: Standard protocol for determination of kcat and KM (continuous spectrophotometric assay, Acetyl CoA hydrolysis at 235 nm)
Type: biochemical
Settings: purified protein, about 23° C., 0.2 mM acetyl CoA; for Kcat: 20 mM HEPES pH 6.8, 10% ethylene glycol; for Km: pH 6.8, glyphosate 0.125 to 10 mM
In short: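 KM from initial rates over 0.125–10 mM glyphosate, fitted by Lineweaver-Burke transformation of Michaelis-Menten; kcat/KM computed as kcat divided by KM. Continuous spectrophotometric read of acetyl-CoA hydrolysis at 235 nm.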

| Molecule | Kcat [s⁻¹] | Km [mM] |
| --- | --- | --- |
| SEQ ID NO: 491: GAT polypeptide (protein, 3_7F9, GAT polypeptide) MLEVKPINAEDTYELRHRILRPNQPIEACMYESDLLRGAFHLGGYYGGKLISIASFHQAEHSDLQGQKQYQLRGMATLEGYREQKAGSSLIKHAEEILRKRGADLLWCNARTSASGYYKKLGFSEQGEIFETPPVGPHILMYKRIT | 3.2258 | 0.29 |
| SEQ ID NO: 506: GAT polypeptide (protein, 8_1H7, GAT polypeptide) MLEVKPINAEDTYELRHRILRPNQPIEVCMYETDLLRGAFHLGGFYRGKLISIASFHQAEHSELQGQKQYQLRGMATLEGYREQKAGSSLIKHAEEILRKRGADMLWCNARTSASGYYKKLGFSEQGEIFETPPVGPHILMYKRLT | 1.6873 |  |
| SEQ ID NO: 503: GAT polypeptide (protein, 8_1F8, GAT polypeptide) MIEVKPINAEDTYELRHRILRPNQPLEVCMYETDLLRGAFHLGGFYRGKLISIASFHQAEHSDLQGQKQYQLRGMATLEGYREQKAGSSLIKHAEEILRKRGADLLWCNARTSASGYYKKLGFSEQGEIFDTPPVGPHILMYKRIT | 1.381 |  |
| SEQ ID NO: 492: GAT polypeptide (protein, 3_8G11, GAT polypeptide) MLEVKPINAEDTYELRHRILRPNQPIEVCMYESDLLRGAFHLGGYYRGKLISIASFHQAEHSELQGQKQYQLRGMATLEGYREQKAGSSLIKHAEEILRKRGADLLWCNARTSASGYYKKLGFSEQGEIFETPPVGPHILMYKRIT | 1.652 |  |
| SEQ ID NO: 496: GAT polypeptide (protein, 5_2F10, GAT polypeptide) MLEVKPINAEDTYELRHKILRPNQPIEVCMYETDLLRGAFHLGGFYGGKLISIASFHQAEHSDLQGQKQYQLRGMATLEGYRDQKAGSSLIRHAEQILRKRGADMLWCNARTSASGYYKKLGFSEQGEIFETPPVGPHILMYKRLT | 0.912 |  |
| SEQ ID NO: 494: GAT polypeptide (protein, 5_2B3, GAT polypeptide) MIEVKPINAEDTYELRHRILRPNQPLEVCMYETDLLRGAFHLGGFYGGKLISIASFHQAEHSDLQGQKQYQLRGMATLEGYRDQKAGSSLIRHAEQILRKRGADMLWCNARTSASGYYKKLGFSEQGEIFETPPVGPHILMYKRIT | 0.9458 |  |
| SEQ ID NO: 493: GAT polypeptide (protein, 4_1B10, GAT polypeptide) MIEVKPINAEDTYELRHRILRPNQPIEVCMYETDLLRGAFHLGGFYGGKLISIASFHQAEHSDLQGQKQYQLRGMATLEGYRDQKAGSSLIRHAEQILRKRGADMLWCNARTSASGYYKKLGFSEQGEIFETPPVGPHILMYKRIT | 1.285 |  |
| SEQ ID NO: 507: GAT polypeptide (protein, 8_1H9, GAT polypeptide) MLEVKPINAEDTYELRHKILRPNQPLEVCMYETDLLRGAFHLGGYYRGKLISIASFHQAEHSDLQGQKQYQLRGMATLEGYREQKAGSSLIRHAEEILRKRGADLLWCNARTSASGYYKKLGFSEQGEVFDTPPVGPHILMYKRLT | 1.306 |  |
| SEQ ID NO: 504: GAT polypeptide (protein, 8_1G2, GAT polypeptide) MIEVKPINAEDTYELRHRVLRPNQPLEVCMYETDLLRGAFHLGGYYRGKLISIASFHQAEHSELQGQKQYQLRGMATLEGYREQKAGSSLIKHAEEILRKRGADLLWCNARTSASGYYKKLGFSEQGEVFETPPVGPHILMYKRLT | 1.124 |  |
| SEQ ID NO: 505: GAT polypeptide (protein, 8_1G3, GAT polypeptide) MLEVKPINAEDTYELRHKILRPNQPIEVCMYETDLLRGAFHLGGYYRGKLISIASFHQAEHSELQGQKQYQLRGMATLEGYREQKAGSSLIRHAEEILRKRGADLLWCNARTSASGYYKKLGFSEQGEIFDTPPVGPHILMYKRIT | 1.815 |  |
| SEQ ID NO: 280: GAT polypeptide (protein, 10_4H7, GAT polypeptide) MIEVKPINAEDTYEIRHRILRPNQPLEACMYETDLLGGTFHLGGYYRGKLVSIASFHQAEHPELEGQKQYQLRGMATLEGYREQKAGSTLIRHAEELLRKKGADLLWCNARTSASGYYKKLGFSEQGEVYDIPPTGPHILMYKKLT | 1.87 | 1.7 |
| SEQ ID NO: 510: GAT polypeptide (protein, GAT1_29G1, GAT polypeptide) MIEVKPINAEDTYEIRHRILRPNQPLEACMYETDLLGGTFHLGGYYRGKLISIASFHQAEHSELEGQKQYQLRGMATLEGYREQKAGSTLIRHAEELLRKKGADLLWCNARTSVSGYYKKLGFSEQGGVCDIPPIGPHILMYKKLA | 0.103 | 4 |
| SEQ ID NO: 511: GAT polypeptide (protein, GAT1_32G1, GAT polypeptide) MIEVKPINAEDTYEIRHRILRPNQPLEACMYETDLLGGTFHLGGYYRGKLISIASFHQAEHPELEGQKQYQLRGMATLEGYREQKAGSTLIRHAEELLRKKGADLLWCNARTSVSGYYEKLGFSEQGEVYDIPPIGPHILMYKKLT | 0.075 | 3.3 |
| SEQ ID NO: 508: GAT polypeptide (protein, GAT1_21F12, GAT polypeptide) MIEVKPINAEDTYEIRHRILRPNQPLEACKYETDLLGGTFHLGGYYRGKLISIASFHNAEHSELEGQKQYQLRGMATLEGYREQKAGSTLIRHAEELLRKKGADLLWCNARTSVSGYYKKLGFSEQGEVYDIPPIGPHILMYKKLT | 0.09 | 4.6 |
| SEQ ID NO: 512: GAT polypeptide (protein, GAT2_15G8, GAT polypeptide) MIEVKPINAEDTYEIRHRILRPNQPLEACKYETDLLGGTFHLGGYYRGKLISIASFHNAEHSELEGQKQYQLRGMATLEGYREQKAGSTLIRHAEELLRKKGADLLWCNARTSVSGYYKKLGFSEQGEVYDIPPIGPHILMYKKLT | 0.075 | 2.8 |
| SEQ ID NO: 509: GAT polypeptide (protein, GAT1_24G3, GAT polypeptide) MIEVKPINAEDTYEIRHRILRPNQPLEACMYETDLLGGTFHLGGYYRGKLISIASFHQAEHSELEGQKQYQLRGMATLEGYREQKAGSTLIRHAEELLRKKGADLLWCNARTFVSGYYEKLGFSEQGEVYDIPPIGPYILMYEKLT | 0.0817 | 3.8 |
| SEQ ID NO: 281: GAT polypeptide (protein, 10_6D11, GAT polypeptide) MIEVKPINAEDTYEIRHRILRPNQPLEACKYETDLLGGTLHLGGYYRGKLVSIASFHQAEHPELEGQKQYQLRGMATLEGYREQKAGSTLIRHAEELLRKKGADLLWCNARTSASGYYKKLGFSEQGEVYDIPPVGPHILMYKKLT | 1.04 | 1.2 |
| SEQ ID NO: 495: GAT polypeptide (protein, X: residue not identified in the source; ends and bridges not checked, GAT polypeptide) MLXVKPINAEDTYELRHKILRPNQPXEVCMYEXDLLRGAFHLGGFYRGKLISIASFHQAEHSDLQGQKQYQLRGMATLEGYRDQKAGSSLIKHAEQILRERGADMLWCNARTSASGYYKKLGFSEQGEVFDTPPVGPHILMYKRLT | 1.257 |  |
| SEQ ID NO: 498: GAT polypeptide (protein, 6_1D5, GAT polypeptide) MIEVKPINAEDTYELRHKILRPNQPLEVCMYETDLLRGAFHLGGFYRGKLISIASFHQAEHSDLQGQKQYQLRGMATLEGYRDQKAGSSLIRHAEQILRKRGADMLWCNARTSASGYYKKLGFSEQGEVFETPPVGPHILMYKRIT | 0.7153 |  |
| SEQ ID NO: 500: GAT polypeptide (protein, 6_1F1, GAT polypeptide) MLEVKPINAEDTYELRHKILRPNQPLEVCMYETDLLRGAFHLGGFYRGKLISIASFHQAEHSELQGQKQYQLRGMATLEGYRDQKAGSSLIRHAEQILRKRGADMLWCNARTSASGYYKKLGFSEQGEVFETPPVGPHILMYKRLT | 1.164 |  |
| SEQ ID NO: 502: GAT polypeptide (protein, 6_1H4, GAT polypeptide) MLEVKPINAEDTYELRHKILRPNQPLEVCMYETDLLRGAFHLGGFYGGKLISIASFHQAEHSDLQGQKQYQLRGMATLEGYRDQKAGSTLIKHAEQILRKRGADMLWCNARTSASGYYKKLGFSEQGEVFETPPVGPHILMYKRLT | 1.432 |  |
| SEQ ID NO: 501: GAT polypeptide (protein, 6_1H10, GAT polypeptide) MLEVKPINAEDTYELRHKILRPNQPLEVCMYETDLLRGAFHLGGFYGGKLISIASFHQAEHSDLQGQKQYQLRGMATLEGYRDQKAGSSLIRHAEEILRKRGADMLWCNARTSASGYYKKLGFSEQGEVFDTPPVGPHILMYKKIT | 0.2835 |  |
| SEQ ID NO: 499: GAT polypeptide (protein, 6_1F11, GAT polypeptide) MIEVKPINAEDTYELRHKILRPNQPLEVCMYETDLLRGAFHLGGFYRGKLISIASFHQAEHSDLQGQKQYQLRGMATLEGYREQKAGSSLIRHAEQILRKRGADMLWCNARTSASGYYKKLGFSEQGEVFETPPVGPHILMYKRLT | 1.7627 |  |
| SEQ ID NO: 497: GAT polypeptide (protein, 6_1A11, GAT polypeptide) MLEVKPINAEDTYELRHKILRPNQPLEVCMYETDLLRGAFHLGGFYRGKLISIASFHQAEHSDLQGQKQYQLRGMATLEGYRDQKAGSSLIRHAEQILRKRGADMLWCNARTSASGYYRKLGFSEQGEVFETPPVGPHILMYKRLT | 0.759 |  |
